Measured values from patent US6762290, “High affinity vascular endothelial growth factor (VEGF) receptor nucleic acid ligands and inhibitors” (Gilead Sciences, Inc.).
Substitutions are numbered along the chain they refer to.

B1: K7 (ssRNA)
RNA: GGGAGGACGAUGCGGACGAUAACACAGGGCCUGCUUGGAUCACACUGAUUGCGCCCAGACGACUCGCCCGA
modifications: 2'-F pyrimidines
B2: K23 (ssRNA)
RNA: GGGAGGACGAUGCGGACACACACAUCAUAAACAUUGUCCGUUGACCAGACGACUCGCCCGA
modifications: 2'-F pyrimidines
B3: K13 (ssRNA)
RNA: GGGAGGACGAUGCGGAACCAAUUAAGUCUGGCAAAUCUCUCUGUGCAGACGACUCGCCCGA
modifications: 2'-F pyrimidines
B4: K5 (ssRNA)
RNA: GGGAGGACGAUGCGGCAUGGGGCCUGACUGGAUCAUACCACCGCUUCCUCUGGUCAGACGACUCGCCCGA
modifications: 2'-F pyrimidines
B5: K3 (ssRNA)
RNA: B4 RNA with C47U
modifications: 2'-F pyrimidines
B6: K4 (ssRNA)
RNA: GGGAGGACGAUGCGGAGGUGCUCCUUUGGAACUUCGUAUUUGUCUGCUCCUGGUCAGACGACUCGCCCGA
modifications: 2'-F pyrimidines
B7: K21 (ssRNA)
RNA: GGGAGGACGAUGCGGAUCAUACCGAAGAGACACGGGGCCACCAUAUCCUCACCCCCAGACGACUCGCCCGA
modifications: 2'-F pyrimidines
B8: K12 (ssRNA)
RNA: GGGAGGACGAUGCGGAAACGGAAGAAUUGGAGACCGACGUCGACCUCUUGGCCCCAGACGACUCGCCCGA
modifications: 2'-F pyrimidines
B9: K1 (ssRNA)
RNA: GGGAGGACGAUGCGGGGCCUGUUUGGAUCAUACCGAUCGUCAAUCCAAGAGUGGUCAGACGACUCGCCCGA
modifications: 2'-F pyrimidines
B10: K2 (ssRNA)
RNA: B9 RNA with A47U, G49A
modifications: 2'-F pyrimidines
B11: K10 (ssRNA)
RNA: GGGAGGACGAUGCGGUUGAUCGAGGUUCUAAGGCCUAUUUCCUGACUUUCUCCCCCAGACGACUCGCCCGA
modifications: 2'-F pyrimidines
B12: K11 (ssRNA)
RNA: B11 RNA with G32A
modifications: 2'-F pyrimidines

Assays:
[1] = molecular target: T1, VEGFR2 (KDR) extracellular domain/Fc (Homo sapiens, UniProt P35968 P35968:20-764); assay: filter; conditions: tags: C-terminal human IgG1 Fc fusion with Factor Xa site and His6; R&D Systems; NSO mouse myeloma cells; chain copies: 2 (stated, disulfide-linked homodimer)
[2] = molecular target: T1, VEGFR2 (KDR) extracellular domain/Fc; assay: filter; 30N clone; conditions: tags: C-terminal human IgG1 Fc fusion with Factor Xa site and His6; R&D Systems; NSO mouse myeloma cells; chain copies: 2 (stated, disulfide-linked homodimer)
[3] = molecular target: T1, VEGFR2 (KDR) extracellular domain/Fc; assay: filter; Table 2 prints CCACGGC where listing has ccaccgc; conditions: tags: C-terminal human IgG1 Fc fusion with Factor Xa site and His6; R&D Systems; NSO mouse myeloma cells; chain copies: 2 (stated, disulfide-linked homodimer)
[4] = molecular target: T2, VEGF receptors on HUVEC (VEGFR2/KDR) (Homo sapiens, UniProt P35968 P35968:20-1356); assay: competition; inhibition of 125I-VEGF-165 binding to HUVEC
Experimental: (§1) We next examined whether a group of representative aptamers was able to inhibit the binding of [125]I-VEGF-165 to VEGF receptors expressed on HUVECs. Cells were seeded in 96-well plates at a density of about 10,000 cells/well and maintained until confluent. Culture medium was then replaced with growth factor deficient medium (MEM, 5% heat inactivated fetal bovine serum, 1 µg/ml heparin) for 3–4 hours. Cells were then washed with Dulbecco's phosphate-buffered saline (DPBS) (containing 1 mM CaCl_2, 1 mM MgCl_2 and 0.1% bovine serum albumin) followed by the addition of 100 µl/well of DPBS. [125]I-VEGF-165 ([…]) in the presence of varying amounts of aptamers (0.001–1000 nM) was then added to cells for 2 hours at room temperature. Unbound [125]I-VEGF-165 was then removed by washing with DPBS and the cells were lysed with Triton X-100. Lysates were harvested onto glass fiber filters plates and processed for scintillation counting. Aptamers K1, K10, K17 and K21 were tested. […] Thus, among the VEGFR2 aptamers tested, both receptor binding antagonists and non-antagonists have been identified.

[5] = molecular target: T1, VEGFR2 (KDR) extracellular domain/Fc; assay: filter; circularly permuted family member; conditions: tags: C-terminal human IgG1 Fc fusion with Factor Xa site and His6; R&D Systems; NSO mouse myeloma cells; chain copies: 2 (stated, disulfide-linked homodimer)
[6] = molecular target: T2, VEGF receptors on HUVEC (VEGFR2/KDR); assay: competition; inhibition of 125I-VEGF-165 binding to HUVEC, DPBS with Ca, Mg, room temperature
Experimental: as §1

T1 sequence (P35968 20-764, one chain of several): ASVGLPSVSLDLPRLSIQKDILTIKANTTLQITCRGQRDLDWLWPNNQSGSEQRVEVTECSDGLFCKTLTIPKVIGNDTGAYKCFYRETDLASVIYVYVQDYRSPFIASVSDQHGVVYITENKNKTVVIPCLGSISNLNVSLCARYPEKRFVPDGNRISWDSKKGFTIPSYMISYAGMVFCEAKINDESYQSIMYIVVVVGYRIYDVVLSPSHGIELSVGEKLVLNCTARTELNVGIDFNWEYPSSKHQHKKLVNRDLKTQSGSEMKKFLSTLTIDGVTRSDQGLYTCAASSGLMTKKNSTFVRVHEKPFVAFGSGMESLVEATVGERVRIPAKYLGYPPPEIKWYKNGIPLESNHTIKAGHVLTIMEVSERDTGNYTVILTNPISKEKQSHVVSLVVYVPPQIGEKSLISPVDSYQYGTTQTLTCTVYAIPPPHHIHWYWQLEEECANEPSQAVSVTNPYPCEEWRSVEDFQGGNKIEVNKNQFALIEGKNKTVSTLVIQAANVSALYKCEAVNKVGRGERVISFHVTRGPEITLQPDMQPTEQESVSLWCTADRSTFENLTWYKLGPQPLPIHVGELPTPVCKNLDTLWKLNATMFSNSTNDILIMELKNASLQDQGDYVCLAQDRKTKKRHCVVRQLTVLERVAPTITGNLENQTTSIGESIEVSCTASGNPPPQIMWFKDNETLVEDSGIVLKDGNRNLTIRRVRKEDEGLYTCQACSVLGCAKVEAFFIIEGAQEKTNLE
T2 sequence (P35968 20-1356, one chain of several): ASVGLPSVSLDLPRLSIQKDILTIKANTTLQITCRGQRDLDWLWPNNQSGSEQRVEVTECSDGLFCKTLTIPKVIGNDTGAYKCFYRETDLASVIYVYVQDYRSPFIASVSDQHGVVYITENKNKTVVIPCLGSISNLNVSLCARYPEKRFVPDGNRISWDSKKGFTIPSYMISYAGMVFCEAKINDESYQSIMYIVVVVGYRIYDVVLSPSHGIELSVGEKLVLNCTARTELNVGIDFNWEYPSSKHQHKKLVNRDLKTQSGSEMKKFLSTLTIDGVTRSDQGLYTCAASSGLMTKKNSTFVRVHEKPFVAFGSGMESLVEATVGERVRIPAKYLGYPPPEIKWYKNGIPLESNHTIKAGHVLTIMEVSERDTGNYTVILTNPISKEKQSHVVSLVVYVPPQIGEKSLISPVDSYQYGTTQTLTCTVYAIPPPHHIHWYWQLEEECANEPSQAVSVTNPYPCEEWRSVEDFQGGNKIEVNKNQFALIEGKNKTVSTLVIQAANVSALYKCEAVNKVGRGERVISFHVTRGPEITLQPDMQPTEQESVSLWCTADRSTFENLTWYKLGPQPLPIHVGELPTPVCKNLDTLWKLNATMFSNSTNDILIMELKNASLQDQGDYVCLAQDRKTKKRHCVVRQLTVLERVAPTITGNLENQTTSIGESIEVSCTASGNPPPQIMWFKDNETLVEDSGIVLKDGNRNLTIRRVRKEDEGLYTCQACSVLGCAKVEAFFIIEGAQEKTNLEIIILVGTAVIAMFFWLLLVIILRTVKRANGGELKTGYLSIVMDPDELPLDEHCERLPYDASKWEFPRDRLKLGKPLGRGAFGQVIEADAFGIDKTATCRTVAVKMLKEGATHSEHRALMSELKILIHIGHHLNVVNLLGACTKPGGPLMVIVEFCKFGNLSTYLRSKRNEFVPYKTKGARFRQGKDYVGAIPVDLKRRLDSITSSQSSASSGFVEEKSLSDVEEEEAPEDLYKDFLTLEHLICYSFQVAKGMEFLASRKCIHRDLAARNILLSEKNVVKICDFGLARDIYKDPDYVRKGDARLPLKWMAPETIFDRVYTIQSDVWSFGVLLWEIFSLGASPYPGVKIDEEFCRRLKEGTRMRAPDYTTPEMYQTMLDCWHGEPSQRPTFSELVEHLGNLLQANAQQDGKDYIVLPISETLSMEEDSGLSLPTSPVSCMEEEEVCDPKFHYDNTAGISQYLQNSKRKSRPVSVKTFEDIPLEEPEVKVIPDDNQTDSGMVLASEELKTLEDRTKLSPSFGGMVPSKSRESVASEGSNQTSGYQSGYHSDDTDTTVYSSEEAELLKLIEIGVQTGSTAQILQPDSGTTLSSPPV

Binder	Kd [1]	also measured
B1	460 pM	–
B2	–	Kd [2]: 2200 pM
B3	–	Kd [2]: 750 pM
B4	440 pM	–
B5	–	Kd [3]: 510 pM
B6	280 pM	–
B7	–	IC50 [4]: 79000 pM; Kd [5]: 260 pM
B8	15400 pM	–
B9	70 pM	–
B10	270 pM	–
B11	470 pM	IC50 [6]: 1000 pM
B12	610 pM	–
